Two substances from patent publication US20250136710A1 can be followed below.

Assay [1] concerns the target mouse PVR protein, recombinant (mouse). Description: SPR / ELISA with recombinant proteins. (In an ELISA, binding on a coated surface is turned into a signal by an enzyme label.)
Assay [2] concerns the target human PVRIG expressed on cells (human) (UniProt Q6DKI7). The assay can be described thus: FACS; Jurkat cells. On the technique in general: Flow cytometry measures light scatter and fluorescence of single cells or particles in a stream.
Assay [3] shares this target. The assay can be described thus: FACS.

Chain of human PVRIG expressed on cells (human) (Q6DKI7 41-326): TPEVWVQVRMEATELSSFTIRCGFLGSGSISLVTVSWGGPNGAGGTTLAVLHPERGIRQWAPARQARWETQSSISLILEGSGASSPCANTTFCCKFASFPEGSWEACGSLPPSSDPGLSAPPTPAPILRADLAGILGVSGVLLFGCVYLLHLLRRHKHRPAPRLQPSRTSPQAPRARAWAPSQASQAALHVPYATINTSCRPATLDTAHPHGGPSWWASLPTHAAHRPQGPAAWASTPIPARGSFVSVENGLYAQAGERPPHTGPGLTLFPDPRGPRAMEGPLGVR

On to mouse PVRIG Fc (Fc fusion), for which the fold lower affinity than the interaction with mPVRL2 in assay [1] stood at 10 fold.

For orientation: Kd means a measure of binding affinity in units of concentration. As for PVRIG (COM701), the Kd came out at 150 pM in assay [2] and 298 pM in assay [3].
